What was measured:
human lysozyme c (human) = human lysozyme c (human) (UniProt P61626)
[1] = molecular target: recombinant wild type SliC (surface-exposed lysozyme inhibitor of c-type lysozyme, NGO1063) of N. gonorrhoeae FA1090 (N. gonorrhoeae FA1090); test: BLI; biotinylated rSliC (20 ug/mL, 10 min) immobilised on streptavidin sensors, increasing concentrations of HL in solution; Kinetic Buffer (20 mM HEPES pH 8, 15 mM NaCl, 0.002 Tween 20, 0.1 mg/mL BSA); association and dissociation 600 s; 2:1 (Heterogeneous Ligand) model; three biological …; OctetRed 96

recombinant wild type SliC (surface-exposed lysozyme inhibitor of c-type lysozyme, NGO1063) of N. gonorrhoeae FA1090 (natural protein)
IC50 of SliC against the lytic activity of HL towards M. lysodeikticus peptidoglycan (fluorescein-labeled cell walls; 2.5 μM HL, 0-10 μM SliC) (human lysozyme c (human)): 1.85 µM

B1: human lysozyme c (enzyme)
chain: KVFERCELARTLKRLGMDGYRGISLANWMCLAKWESGYNTRATNYNAGDRSTDYGIFQINSRYWCNDGKTPGAVNACHLSCSALLQDNIADAVACAKRVVRDPQGIRAWVAWRNRCQNRDVRQYVQGCGV
Kd [1]: 9.2 µM
